In publication PMC7946963 (2021):
Square brackets hold non-standard residues; d marks the D form. Ends that are not written are not given here. pS = N[C@@H](COP(=O)(O)O)C(=O)O

T1: FIP200 Claw domain (residues 1490–1594) (human, UniProt Q8TDY2 1490-1594)
T1 chain: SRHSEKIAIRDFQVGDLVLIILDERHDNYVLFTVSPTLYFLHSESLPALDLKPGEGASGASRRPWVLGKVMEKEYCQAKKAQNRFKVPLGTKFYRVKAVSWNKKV

T2: LC3C (UniProt Q9BXW4 1-126)
T2 chain: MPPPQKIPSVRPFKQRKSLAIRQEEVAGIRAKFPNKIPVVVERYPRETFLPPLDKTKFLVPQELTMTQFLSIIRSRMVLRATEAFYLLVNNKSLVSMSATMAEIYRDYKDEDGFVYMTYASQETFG

T3: FIP200 Claw Y1564S (human)
T3 chain: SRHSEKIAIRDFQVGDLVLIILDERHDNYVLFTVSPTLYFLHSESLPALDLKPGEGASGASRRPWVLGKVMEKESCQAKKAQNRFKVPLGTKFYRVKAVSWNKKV

T4: FIP200 Claw K1569A (human)
T4 chain: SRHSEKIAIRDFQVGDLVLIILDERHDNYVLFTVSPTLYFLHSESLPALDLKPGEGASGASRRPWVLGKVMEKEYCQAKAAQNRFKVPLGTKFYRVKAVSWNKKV

T5: FIP200 Claw R1573E (human)
T5 chain: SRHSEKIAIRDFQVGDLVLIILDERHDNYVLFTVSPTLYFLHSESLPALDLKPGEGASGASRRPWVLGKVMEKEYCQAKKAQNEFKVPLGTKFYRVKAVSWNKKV

T6: FIP200 Claw F1574Q (human)
T6 chain: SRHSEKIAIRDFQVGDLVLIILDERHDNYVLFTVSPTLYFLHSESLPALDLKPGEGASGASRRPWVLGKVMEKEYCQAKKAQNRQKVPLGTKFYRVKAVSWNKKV


What was measured:
Assay in all cases: FP
[1] = biological target: T1, FIP200 Claw domain (residues 1490–1594)
[2] = biological target: LC3B (UniProt Q9GZQ8 1-120)
[3] = biological target: 1 (UniProt Q9H0R8 1-117)
[4] = biological target: LC3A (UniProt Q9H492 1-121)
[5] = biological target: GABARAPL2 (UniProt P60520 1-117)
[6] = biological target: T2, LC3C
[7] = biological target: T3, FIP200 Claw Y1564S
[8] = biological target: T4, FIP200 Claw K1569A
[9] = biological target: T5, FIP200 Claw R1573E
[10] = biological target: T6, FIP200 Claw F1574Q

Sequence of 1 (Q9H0R8 whole entry): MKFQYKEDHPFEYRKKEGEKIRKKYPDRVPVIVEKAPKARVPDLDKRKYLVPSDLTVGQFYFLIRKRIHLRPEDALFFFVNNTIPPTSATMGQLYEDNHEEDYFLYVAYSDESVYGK
Sequence of GABARAPL2 (P60520 whole entry): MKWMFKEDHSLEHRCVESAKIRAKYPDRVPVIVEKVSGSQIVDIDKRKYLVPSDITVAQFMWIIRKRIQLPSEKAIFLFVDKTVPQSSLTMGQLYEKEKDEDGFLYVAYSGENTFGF

Row | Kd [1] | Kd [2] | Kd [3] | Kd [4] | Kd [5] | Kd [6] | Kd [7] | Kd [8] | Kd [9] | Kd [10] | Binder
1 | 12.3 µM | 40.7 µM | 37.3 µM | 37.3 µM | 123 µM | 39.8 µM | – | – | – | – | TASDDSDIVTLEPPK (also: N-terminal FITC only in fluorescence polarisation assay form) [CCPG1 FIR2 synthetic peptide (residues 99–113)]
2 | – | – | – | – | – | – | 79.5 µM | 105 µM | 138 µM | 120 µM | TASDDSDIVTLEPPK (domain or fragment) [CCPG1 FIR2 (residues 99–113), recombinant]
3 | 0.72 µM | 20.6 µM | 15.3 µM | 15.3 µM | 34.5 µM | 11 µM | – | – | – | – | TASDD[pS]DIVTLEPPK (also: N-terminal FITC in fluorescence polarisation assay only) [phospho-CCPG1 FIR2 synthetic peptide (p-CCPG1 FIR2)]
